# Experimental data: the Human Domainome abundance scans (Beltran et al. 2025)
# ± gives the uncertainty stated by the source.
# B1: Transcriptional regulator ERG, residues 117 to 197; numbered along this chain, P11308 (parent)
# chain: NMTTNERRVIVPADPTLWSTDHVRQWLEWAVKEYGLPDVNILLFQNIDGKELCKMTKDDFQRLTPSYNADILLSHLHYLRE
# Variants of: B1
# Assay: abundance fitness (aPCA) (normalised: wild type 0, dead -1); higher = more abundant; growth selection in yeast, the domain comes from the species named
# Details: Homo sapiens
row,Variant,abundance fitness
1,T56A,-0.118 ± 0.077
2,S19V,-0.716 ± 0.071
3,T16F,-0.008 ± 0.11
4,H75R,0.121 ± 0.05
5,R7G,-0.003 ± 0.032
6,D14L,-0.771 ± 0.13
7,I41C,-0.034 ± 0.053
8,L17S,0.122 ± 0.051
9,S66A,0.058 ± 0.063
10,L27E,-0.965 ± 0.12
11,W18K,-0.625 ± 0.11
12,L27S,-1 ± 0.12
13,A30N,-0.217 ± 0.085
14,G35A,0.03 ± 0.038
15,R80P,-0.01 ± 0.083
16,I10M,0.038 ± 0.053
17,E33I,-0.193 ± 0.12
18,L72N,-1.02 ± 0.49
19,T56D,-0.01 ± 0.081
20,L73H,-0.061 ± 0.091
21,S66I,-0.178 ± 0.11
22,H75F,-0.511 ± 0.16
23,R80S,-0.109 ± 0.064
24,W18V,-0.937 ± 0.1

row,Variant,abundance fitness
1,F44T,-0.297 ± 0.065
2,N46V,-0.617 ± 0.07
3,P12M,-0.65 ± 0.1
4,K54H,-0.071 ± 0.099
5,N40Q,-0.165 ± 0.063
6,T4A,-0.099 ± 0.043
7,I10H,0.138 ± 0.085
8,I71F,-0.272 ± 0.11
9,L17N,0.053 ± 0.08
10,D48E,-0.076 ± 0.045
11,L42F,-0.154 ± 0.082
12,I71H,0.001 ± 0.091
13,L17T,0.154 ± 0.06
14,A13W,-0.122 ± 0.051
15,I47K,-0.255 ± 0.066
16,R24G,-0.088 ± 0.037
17,T16Q,-0.171 ± 0.083
18,W26R,-0.808 ± 0.072
19,H22M,-0.033 ± 0.054
20,R24P,-0.988 ± 0.18
21,M2C,-0.166 ± 0.086
22,C53H,-0.574 ± 0.09
23,K54E,0.072 ± 0.055
24,L36A,-0.476 ± 0.055

row,Variant,abundance fitness
1,F44D,-0.067 ± 0.073
2,P65D,0.07 ± 0.089
3,T16L,0.052 ± 0.046
4,H22F,-0.701 ± 0.2
5,V9M,0.132 ± 0.049
6,D70F,-0.448 ± 0.25
7,S66G,-0.025 ± 0.047
8,V9T,0.054 ± 0.043
9,T56Y,-0.457 ± 0.16
10,L79N,-0.259 ± 0.23
11,P15V,-0.267 ± 0.047
12,Q45M,-0.083 ± 0.062
13,E81P,-0.107 ± 0.15
14,I71E,-0.151 ± 0.053
15,P37L,0.001 ± 0.036
16,T3P,-0.162 ± 0.071
17,E6F,0.002 ± 0.082
18,V23Y,-0.905 ± 0.32
19,E33D,0.002 ± 0.076
20,C53M,0.043 ± 0.058
21,N46H,-0.063 ± 0.089
22,L43W,-0.079 ± 0.04
23,F60I,0.074 ± 0.11
24,E51F,-0.277 ± 0.1

row,Variant,abundance fitness
1,A30G,-0.181 ± 0.04
2,S74R,0.006 ± 0.043
3,V31I,0.02 ± 0.08
4,E51Y,-0.026 ± 0.061
5,D21M,-0.084 ± 0.057
6,P15E,-0.86 ± 0.15
7,I41L,-0.027 ± 0.038
8,V23R,-1.04 ± 0.13
9,K50G,-0.089 ± 0.031
10,D58L,-0.03 ± 0.056
11,S66E,0.03 ± 0.069
12,V23Q,-1.04 ± 0.24
13,H75A,-0.01 ± 0.07
14,T4M,0.146 ± 0.052
15,T3E,-0.045 ± 0.055
16,M2N,-0.028 ± 0.075
17,T3A,-0.043 ± 0.039
18,E6R,-0.088 ± 0.036
19,Q45F,-0.274 ± 0.11
20,L36Y,-0.375 ± 0.15
21,Y78N,0.305 ± 0.094
22,V11K,0.029 ± 0.048
23,Y78F,-0.087 ± 0.13
24,I71N,-0.624 ± 0.23

row,Variant,abundance fitness
1,L43Q,0.047 ± 0.052
2,D70L,-0.24 ± 0.053
3,D38Q,-0.067 ± 0.05
4,K54L,-0.103 ± 0.055
5,D70Q,-0.042 ± 0.062
6,L27R,-0.912 ± 0.092
7,A69K,-0.445 ± 0.17
8,T3D,-0.05 ± 0.066
9,W18L,-0.979 ± 0.13
10,E81H,0.108 ± 0.18
11,H75G,-0.156 ± 0.052
12,W29I,-0.07 ± 0.083
13,N5H,-0.071 ± 0.078
14,F60L,-0.093 ± 0.061
15,T16N,-0.061 ± 0.075
16,E6I,0.007 ± 0.091
17,L73R,-0.039 ± 0.043
18,A13Y,-0.075 ± 0.087
19,D21S,-0.008 ± 0.042
20,L36S,-0.829 ± 0.13
21,N5F,0.075 ± 0.079
22,I47Y,-0.022 ± 0.11
23,C53V,-0.034 ± 0.041
24,T4E,0.035 ± 0.045

row,Variant,abundance fitness
1,E33Y,-0.151 ± 0.087
2,E51I,-0.319 ± 0.16
3,K32H,-0.037 ± 0.18
4,P65Y,0.109 ± 0.28
5,R24Q,0.077 ± 0.059
6,T56K,0.081 ± 0.087
7,M2P,0.004 ± 0.07
8,T20E,0.011 ± 0.041
9,I10Y,-0.013 ± 0.1
10,I47F,-0.176 ± 0.086
11,M55L,-0.023 ± 0.059
12,D59S,-0.155 ± 0.1
13,Q45P,-0.407 ± 0.081
14,N5Y,-0.105 ± 0.089
15,S74T,0.078 ± 0.08
16,M55I,-0.431 ± 0.18
17,F60E,-1.18 ± 0.39
18,V31G,-0.164 ± 0.037
19,H77V,-0.072 ± 0.065
20,R7M,0.044 ± 0.053
21,M2Y,-0.139 ± 0.11
22,R80C,0.178 ± 0.088
23,P37E,0.018 ± 0.06
24,Q61V,-0.002 ± 0.047

row,Variant,abundance fitness
1,T3S,0.055 ± 0.046
2,N40P,-0.153 ± 0.06
3,T4P,-0.056 ± 0.056
4,D48T,0.033 ± 0.052
5,Q61N,-0.06 ± 0.09
6,N40L,-0.179 ± 0.044
7,R24S,-0.02 ± 0.046
8,F60G,-0.971 ± 0.12
9,I41P,-0.024 ± 0.067
10,D59Q,-0.04 ± 0.12
11,D59V,-0.232 ± 0.073
12,K54V,-0.238 ± 0.063
13,E28R,-0.095 ± 0.039
14,P12I,-1.37 ± 0.5
15,R62C,-0.072 ± 0.084
16,R62E,-0.073 ± 0.083
17,L72V,-0.471 ± 0.11
18,E81G,0.138 ± 0.057
19,E51A,0.02 ± 0.04
20,L76W,-0.411 ± 0.12
21,D70G,-0.05 ± 0.038
22,E51R,0.001 ± 0.033
23,V9A,0.12 ± 0.045
